{"source": "the nanobody polyreactivity screen of Harvey et al. (2022)"}
{"test": "yeast display, Sf9 membrane polyspecificity reagent, FACS + sequencing; frameworks hold sequencing errors", "procedure,_shortened": "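Synthetic nanobody libraries on Saccharomyces cerevisiae BJ5465 were galactose-induced for 36–48 hours, stained 1 hour at 4 °C with 10% biotinylated, detergent-solubilized Sf9 membrane reagent and enriched on streptavidin microbeads. FACS then separated cells into low and high (top ~1%) gates by anti-HA (expression) and streptavidin (reagent binding) fluorescence. Genes were colony-PCR amplified, MiSeq 2 × 250 sequenced and CDR-length filtered. A clone's polyreactivity label is that of its gate of origin.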"}
{"sequence": "QVQLVESGGGLVQAGGSLRLSCAASGSIFEQYPMGWYRQAPGKERELVAAISRRSGRTYYADSVKGRFTISRDNAKHTVYLQMHSLIPEDTAVYYCAASGIYFVQYNSWGQGTHVTVSS", "polyreactivity (PSR sort gate)": "high polyreactivity"}
{"sequence": "QVQLVESGGGLVQAGGSLRLSCAASGIILYYYAMGWYRQAPGKERELVASISRGDSTNYADSVKGRFTISRDNAKNTVYLQMNSLKPEDTAVYCNKDYLPSLYRGFDYWGQGTQVTVSS", "polyreactivity (PSR sort gate)": "low polyreactivity"}
{"sequence": "QVQLVESGGGLVQAGGSLRLSCAASGRTLSVYAMGWYRQAPGKERELVAAITIRGGRTYYADSVKGRFTISRDNAKNTVYLQMNSLKPEDTAVYYCAAPPYVKMDYWGQGTQVTVSS", "polyreactivity (PSR sort gate)": "high polyreactivity"}
{"sequence": "QVQLLESGGGLDQSGGSLRLSCAASGRIFTFNAMGWYRQAPGQERELVAAIRFRDGSTYYADSVKGRFTISRDNAKNNGYLQMYSLKPEDTAVYYSAATAYPWPYYYWGQGTQVTVSS", "polyreactivity (PSR sort gate)": "high polyreactivity"}
{"sequence": "QVQLVESGGGLVQAGGSHRLSCAASGFTFVYYAMGWYRQAPGKERELVAAISARTSGTYYADSVKGRFTISRDNAKNTVYLQMNSLTPEDTAVYYCAAGYSYVYWSESAYDYWGQGTQVTVSS", "polyreactivity (PSR sort gate)": "low polyreactivity"}
{"sequence": "QVQLVESGGGLVQAGGSLRLSCAASGSIFGGNDMGWYRQAPGKERELVAAITSSGGSTYYADSVKGRFTISRDNAKNTVYLQMNSLKPEDTAVYYCYADYYGPYRDYGYWGQGTQVTVSS", "polyreactivity (PSR sort gate)": "low polyreactivity"}
{"sequence": "QVQLVESGGGLVQAGGSLRLSCAASGLIFYGNAMGWYRQAPGKERELVADITGSSVRTYSADSVKGRFTISRDNAKNTVYVQMNSLNRKIPRSITALNVSCTSVVVGYDYWGQGTQVTVSS", "polyreactivity (PSR sort gate)": "low polyreactivity"}
{"sequence": "QVQLVESGGGLVQAGGSLSLSCAASGRTFQSYAMGWYRQAPGKERELVATITSRGGSTYYADSVKGRFTISRDNAKYTVYLQMNSLKPEVTAVYYCAKRFKSYLGYDYWGQGTQVTVSS", "polyreactivity (PSR sort gate)": "low polyreactivity"}
{"sequence": "QVQLVESGGGLLQAGGSLRLSCAASGLIFRSYAMGWYRQAPGKERDLVAAITDLFWSTYYADSVKGRFTISRDNAKNTVYLQMNSLKPEDTAVYYCARDDWVYTNVEMDYWGQGTQVTVSS", "polyreactivity (PSR sort gate)": "high polyreactivity"}
{"sequence": "QVQLLESGGGLFQAGGILRLSCAASGLIFWSNAMGWYRKEPGKERELVAAISRRGGRTYYADSVKGRFTISRDNAKNTVYVQMNSLKPEDSALYYCNADLYFLTFGYDYWGQGTQVTVSS", "polyreactivity (PSR sort gate)": "high polyreactivity"}
{"sequence": "QDQLVESGLGIVQAGGSLRLSCAASGYTFSQYSMGWYRQAPGKERELVAAIDSGSKTKYADSVKGRFTISRDNAKNTVYLQMNSLKPEDSAVYYCAADDSYRSIGGDYWGQGTQVTVSS", "polyreactivity (PSR sort gate)": "low polyreactivity"}
{"sequence": "QVQLVESGGGLVQAGGSLRLSCAASGRIFIHYAMGWYRQAPGKERELVAAISWGGGRTYYADSVKGRFTISRDNAKNTVYLQMNSLKPEDTAVYYCAAAGRGSGYDYWGQGTQVTVSS", "polyreactivity (PSR sort gate)": "high polyreactivity"}
{"sequence": "QVQLVESGGGLVQAGGSLRLSCAASGSIFHVNAMGWYRQAPGKERELVAGISDGGSTYYADSVKGRFTISRDNAKNTVYLQMNSLKPEDTAVSYCAAESEQWYSYVLSYVWEYDYWGQGTHVTVSS", "polyreactivity (PSR sort gate)": "low polyreactivity"}
{"sequence": "QVLLQESGGGLVQAGGSLRLSCEAIGNIFSAGGMGWYRQAPVNERELVAGIGTGTSTNYAESVKGRFTISRDNAKNTVYLQMNSLNPEDTAVYYCAAAYYSGLSHWYWGQGTQVTVSS", "polyreactivity (PSR sort gate)": "low polyreactivity"}
{"sequence": "QVQHVESAGGLVQEGGSLRLSCAASGSTSVKYPMGWYRQAPGKERELVAAIRKRGDSTYYADSVKGRFTISRDNAKNTVYLQMNSLKPEDTAVYYCAAQYLRGRGYWGQGTQVTVSS", "polyreactivity (PSR sort gate)": "low polyreactivity"}
{"sequence": "QVQLVESGGGLVQAGGSLRLSCAASGGIFGGYAMGWYRQAPGKEGELVAVITSGGSTYYADSVKGRFTISRDNAKNTVYLQMNSLKPEDTAVYYCAADGNSYSYSTYDYWGQGTQVTLSS", "polyreactivity (PSR sort gate)": "low polyreactivity"}
{"sequence": "QVQLVESGGGLVQAGGSLRLSCAASGRIFHVYAMGWYRQAPGKERELVAAISSGDRTYYADSVKGRFIISRDNAKNTVYLQMNSLKPEDTAVYYCAATAQYYHYHLAKYDYWGQGTQVTVSS", "polyreactivity (PSR sort gate)": "low polyreactivity"}
